Changes are numbered by the printed parent chain.

Test [1] deals with T1, hen-egg white lysozyme (hen, UniProt P00698 19-147).
T1 construct: also called HEWL
As to the kind of experiment: yeast surface display of scFv, 240 nM lysozyme.

Test [2] has as its target T1, hen-egg white lysozyme. Put plainly: surface plasmon resonance, Fab. (In general: In SPR one partner is held on a chip, and binding of the other changes the refractive index at the surface.)
Test [3] addresses T1, hen-egg white lysozyme. Put plainly: bilayer interferometry, IgG1 loaded on the sensor at 1 ug/mL, lysozyme at 1000, 250, 100, 25 and 10 nM. The method, then:
FIGS. 5A-D present anti lysozyme antibody SDR-grafting: FIG. 5A. […] FIG. 5B. […] FIG. 5C. […] FIG. 5D. […] Lysozyme was at concentrations of […] and 1 μg/mL antibody was loaded onto the sensor.

Test [4] has as its target T2, recombinant prostate-specific antigen (PSA) (human, UniProt P07288 25-261, limits assumed).
T2 construct: also called recombinant PSA; recombinantly produced PSA
Put plainly: ELISA of the protein G purified antibody on recombinant PSA. (In general: In an ELISA, binding on a coated surface is turned into a signal by an enzyme label.)

Test [5] concerns the target T2, recombinant prostate-specific antigen …. Put plainly: immunoprecipitation with protein G after incubation with recombinant PSA; blot developed with a commercial anti-PSA antibody. Here is the method:
(§1) FIGS. 4A-E present anti-PSA clone 10 humanization: FIG. 4A. Four anti-PSA antibodies were expressed as chimeras and expression was measured through ELISA of the supernatant SEQ ID Nos.: 83/84, 85/86, 87/88, 81/82). […] FIG. 4B. Expression of five humanized designs for clone 10 was measured through ELISA of the supernatant. […] FIG. 4C. […] FIG. 4D. […] Membrane was developed with a commercial anti-PSA antibody. […] FIG. 4E.

The target in test [6] is T3, natively expressed PSA (supernatant of LNCaP cells) (human, UniProt P07288 25-261).
T3 construct: also called native PSA
T3 sequence (P07288 25-261 limits assumed): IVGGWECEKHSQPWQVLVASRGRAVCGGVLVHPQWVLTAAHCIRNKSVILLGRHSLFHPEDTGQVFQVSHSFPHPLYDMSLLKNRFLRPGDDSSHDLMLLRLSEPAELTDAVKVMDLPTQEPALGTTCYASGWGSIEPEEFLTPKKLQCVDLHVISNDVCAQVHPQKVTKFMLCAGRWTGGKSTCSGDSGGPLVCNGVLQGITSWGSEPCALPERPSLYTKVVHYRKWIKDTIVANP
As to the kind of experiment: immunoprecipitation with protein G after overnight incubation with LNCaP supernatant; blot developed with a commercial anti-PSA antibody. Here is the method: as §1

T2 sequence (P07288 25-261 limits assumed): as above
T1 sequence (P00698 19-147 limits assumed): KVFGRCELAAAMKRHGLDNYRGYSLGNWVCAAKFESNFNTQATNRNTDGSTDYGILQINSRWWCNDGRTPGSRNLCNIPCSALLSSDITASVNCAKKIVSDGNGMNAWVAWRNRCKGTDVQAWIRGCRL

B1: Anti-HEWL Design 6, scFv on yeast surface (scFv, V domains shown, not shown: large carriers; small tags and cut ends)
VH: EVQLVQSGAEVKKPGATVKISCKVSGYTFSTYWMEWVQQAPGKGLEWMGEVLPGSGSTYYAEKFQGRVTITADTSTDTAYMELSSLRSEDTAVYYCARGDGYFQHWGQGTLVTVSS
VL: EIVLTQSPDFQSVTPKEKVTITCRASQSISSNLHWYQQKPDQSPKLLIKYASQSFSGVPSRFSGSGSGTDFTLTINSLEAEDAATYYCHQSNSWPRTFGPGTKVDIK
notes: also called Des6 (scFv format)
Turning to B1, in the test with hen-egg white lysozyme [1], the binding result is recorded as “binds”.

B2: Anti-HEWL Design 1, human Fab (Fab, V domains shown)
VH: B1 VH
VL: DIQMTQSPSSLSASVGDRVTITCRASQSISSNLNWYQQKPGKAPKLLIYYASSLQSGVPSRFSGSGSGTDFTLTISSLQPEDFATYYCQQSNSWPRTFGPGTKVDIKR
notes: The Fab heavy chain ends in a His tag; also called hαHEWL; design 1 (Fab)
As to B2, the equilibrium dissociation constant (Kd) with hen-egg white lysozyme [2] was 41.6 nM.

B3: Anti-HEWL Design 1, human IgG1 (antibody, V domains shown)
VH: B1 VH
VL: B2 VL
notes: also called Des 1; Des1
Take B3: in the test with hen-egg white lysozyme [3], binding was put at a Kd of 11 nM.

B4: Anti-PSA Design 1 (humanized clone 10) (antibody, V domains shown)
VH: QVQLVQSGAEVKKPGSSVKVSCKASGYSFTDYNMNWVRQAPGQGLEWIGVISPDYGTPSYAQKFQGRVTITADESTSTAYMELSSLRSEDTAVYYCARGKGNYVVFAYWGQGTLVTVSS
VL: DIQMTQSPSSLSASVGDRVTITCKASQSVVNNVVWYQQKPGKAPKLLIYYASNRYSGVPSRFSGSGSGTDFTLTISSLQPEDFATYYCQQHYTSPLTFGPGTKVDIKR
notes: Full-length human IgG1/kappa chains; also called PSA1
B4: the binding result in test [4] was “binds”.

B5: Anti-PSA Design 3 (humanized clone 10) (antibody, V domains shown)
VH: B4 VH with Q1E, S16A, S17T, V20I, A24V, R38Q, Q43K, Q62E, E74T, S77D
VL: DIVMTQSPDSLAVSLGERATINCKASQSVVNNVVWYQQKPGQPPKLLIYYASNRYSGVPDRFSGSGSGTDFTLTISSLQAEDVAVYYCQQHYTSPLTFGPGTKVDIKR
notes: Full-length human IgG1/kappa chains; also called PSA3
For the molecule B5, the binding result in test [4] was “binds”.

B6: Anti-PSA Design 2 (humanized clone 10) (antibody, V domains shown)
VH: B4 VH
VL: DIVMTQTPLSLSVTPGQPASISCKASQSVVNNVVWYLQKPGQPPQLLIYYASNRYSGVPDRFSGSGSGTDFTLKISRVEAEDVGVYYCQQHYTSPLTFGPGTKVDIKR
notes: Full-length human IgG1/kappa chains; also called PSA2
Consider B6, for which the binding result in test [4] is on record as “binds”.

B7: Anti-PSA Design 4 (humanized clone 10) (antibody, V domains shown)
VH: QVQLQESGPGLVKPSETLSLTCTVSGYSFTDYNMNWIRQPPGKGLEWIGVISPDYGTPSYNPSLKSRVTISVDTSKNQFSLKLSSVTAADTAVYYCARGKGNYVVFAYWGQGTLVTVSS
VL: B4 VL with D70E
notes: Full-length human IgG1/kappa chains; also called PSA4
As to B7, the binding result in test [5] and in test [6] was “binds” in each case.

B8: Anti-PSA Design 5 (humanized clone 10) (antibody, V domains shown)
VH: B4 VH with Q1E, S16A, S17T, V20I, A24V, R38Q, Q43K, Q62E, E74T, S77D
VL: B4 VL with D70E
notes: Full-length human IgG1/kappa chains; also called PSA5
Regarding B8, the binding result in test [5] is recorded as “binds”.

Broadly, the Kd is a measure of binding affinity in units of concentration. Higher therefore signals lower affinity.

These data come from patent US20250122311A1 (YEDA RESEARCH AND DEVELOPMENT, published 2025).
